The nature of the data set: label from the status in PepcDB records.
As to “MAVQLLENWLLKEQEKIQTKYRHLNHISVVEPNILFIGDSIVEYYPLQELFGTSKTIVNRGIRGYQTGLLLENLDAHLYGGAVDKIFLLIGTNDIGKDVPVNEALNNLEAIIQSVARDYPLTEIKLLSILPVNEREEYQQAVYIRSNEKIQNWNQAYQELASAYMQVEFVPVFDCLTDQAGQLKKEYTTDGLHLSIAGYQALSKSLKDYLY”, the protein production result is “not failed”.
In the case of “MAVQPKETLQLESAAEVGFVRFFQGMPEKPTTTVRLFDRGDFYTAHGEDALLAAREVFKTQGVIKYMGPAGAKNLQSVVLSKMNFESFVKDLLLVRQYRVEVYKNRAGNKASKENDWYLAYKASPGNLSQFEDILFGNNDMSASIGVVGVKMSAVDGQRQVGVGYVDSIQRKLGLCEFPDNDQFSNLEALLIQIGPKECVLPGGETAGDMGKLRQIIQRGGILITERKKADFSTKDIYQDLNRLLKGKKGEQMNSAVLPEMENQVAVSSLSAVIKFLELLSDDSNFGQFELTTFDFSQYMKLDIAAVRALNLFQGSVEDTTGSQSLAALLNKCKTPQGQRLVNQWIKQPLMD”, the protein production entry is given as “failed”.
For “MAVQRVQETQRHSSRVLVPQHAGQFHPVGLRHLSTGPGLHRRSVLRSARVLAKSSIDQPPGQHAQGAVMLRTPFSPRLEGWLLVALAVLLIGAGLGMRQPQNVDEERFLGVALEMLQNGSWFVPHRAAEIYADKPPLFMWTVAFFIWLTGSPNIALYLPGLLSAGTITAVLYDLGNRLWERRIGRYAALLFLATYQTYSILRTGQIDSFLCLWVALGFYGLVRHLLLGPAWGWFYFSCAAMGLGIISKGVGFVPALMLIPYAYAVRKNWHGVVRMPGQAARWALGLLVTLIACCLWLVPMVISVVRDGGPEGFAYLHEILLHQTANRYASAWDHREPFWYFLVNVIPQYWLPLVFALPWLIPAWRRQLSKQDGRVLVLLGWVLLVLLFFSLSSGKRKLYIFPALPGLVLVAAPLVPWLLRRWFRERVLARRIVPTIVVVWLALWFARGFIEPVVEGENPHKELMEQAAEVTHGADLVLVNWREGHWLYARQPMVHFGFAHALANERAASWLREHPGTFALVPGELLANCFLPEKAHPLGKTSRADWFLVDAQADNGVCRPERPPEVYRFAWKQNAQ” the value was “failed”.
“MAVRQVTVGYSDGTHKTMPVRCDQTVLDAAEEHGVAIVNECQSGICGTCVATCTAGRYQMGRTEGLSDVERAARKILTCQTFVTSDCRIELQYPVDDNAALLVTGDGVVTAVELVSPSTAILRVDTSGMAGALRYRAGQFAQLQVPGTNVWRNYSYAHPADGRGECEFIIRLLPDGVMSNYLRDRAQPGDHIALRCSKGSFYLRPIVRPVILVAGGTGLSAILAMAQSLDADVAHPVYLLYGVERTEDLCKLDELTELRRRVGRLEVHVVVARPDPDWDGRTGLVTDLLDERMLASGDADVYLCGPVAMVDAARTWLDHNGFHRVGLYYEKFVASGAARRRTPARLDYAGVDIAEVCRRGRGTAVVIGGSIAGIAAAKMLSETFDRVIVLEKDGPHRRREGRPGAAQGWHLHHLLTAGQIELERIFPGIVDDMVREGAFKVDMAAQYRIRLGGTWKKPGTSDIEIVCAGRPLLEWCVRRRLDDEPRIDFRYESEVADLAFDRANNAIVGVAVDNGDADGGDGLQVVPAEFVVDASGKNTRVPEFLERLGVGAPEAEQDIINCFYSTMQHRVPPERRWQDKVMVICYAYRPFEDTYAAQYYTDSSRTILSTSLVAYNCYSPPRTAREFRAFADLMPSPVIGENIDGLEPASPIYNFRYPNMLRLRYEKKRNLPRALLAVGDAYTSADPVSGLGMSLALKEVREMQALLAKYGAGHRDLPRRYYRAIAKMADTAWFVIREQNLRFDWMKDVDKKRPFYFGVLTWYMDRVLELVHDDLDAYREFLAVVHLVKPPSALMRPRIASRVLGKWARTRLSGQKTLIARNYENHPIPAEPADQLVNA”: the protein production result is given as “failed”.
Turning to “MAVVSHGGFRAAARALDVSQGGLTKSIAALEQEYGVDLIERSAKGVLLTPKGAAFVPLARAIVEEAERAEGWLRAQSGELSTSVSLGVSIEPSIRLAPAVLRDFRKALPDTSVHLTQGVALDLLGALRENRIELAVIRLPRNFDSSDLKVQRLYQSEPVIVGRAGHPGAGAASLRELVKYDWVVVGDTSRQGAMNDDSIWELFDREGLGRPRFAAVCNSLLSIVAMLMESDALARVPRALLDHSLARRNLIPIPVAEPPVPYWIATVHKASRRLSPEAQTLNAMLSSYARISGALSPERRPGEP”, the protein production entry is given as “failed”.
Turning to “MAWMFLLLAAAFEVTFAMGMKYAEGFTRPWPSLLTVVAAVGGIYFLTLAMRELPVSVAYPIWTAIGSLGTVLLGCLLLGESLTAVKLVSVGLIVAGVAGLK”, the protein production result is “failed”.
For “MAWRVGIAPLMTPSTPLWPGREPVYRSAALSSMEPGRPRGQQGTELGMPAGAPLRRGIGGGPGLDVRRRDLGAVAAAHQHAILGPAQVGDAHGEPDPDRGQRDGEGERGDVGEHAVAEIVRLGARLLVARQVERLGRAAHRLHGAVAPVDRRGGGGARPELEHPVLLIRAYGPLGFHGARITPKQRFLIAYVVNALQKIFSTRTCIALLHDLFAKARDSGRHAGVRMRGVALQNSHGTCRARSREHRLVISLCAPNAFCRRKAHGIIMEPGPPVATNNVRGSSTMTTNAREPRVHPVPILSLRPTQMTVGMREVKEKRKRWREHDSKKQADLLGKHMIPVVYGPDKRYYVIDHHHLGRALHDEGVKEVLVTVVGDLRMVEREAFWGVMDNKRWVYPYDSKGERRPFRDLPKSVADLRDDPFRSLAGELRRLGGFAKDTTPFSEFLWADYLRRKLSRKAVDANFDKALEKALSAAKSKDAIYLPGWCGPADDD” the value was “failed”; for “MAWYEGAFFYQIFPDRFFRAGPPGRPAPAGPFEPWEAPPTLRGFKGGTLWGVAEKLPYLLDLGVEAIYLNPVFASTANHRYHTVDYFQVDPILGGNEALRHLLEVAHAHGVRVILDGVFNHTGRGFFAFQHLMENGEQSPYRDWYHVKGFPLKAYTAHPNYEAWWGNPELPKLKVETPAVREYLLAVAEHWIRFGVDGWRLDVPNEIPDPTFWREFRQRVKGANPEAYIVGEIWEEADFWLQGDMFDAVMNYPLARAVLGFVGGEALDRDLAAQTGLGRIEPLQALAFSHRLEDLFGRYRPEVVRAQMNLLTSHDTPRLLSLMRGSVERARLALALLFLLPGNPTVYYGEEVGMAGGKDPENRGGMVWEEARWQKDLRETVKRLARLRKEHPALRTAPYLRIYAQDGHLAFARGPYLAVVNASPHPFRQDFPLHGVFPRGGRAVDLLSGEVCTPQGGRLCGPVLPPFSLALWREA”, “not failed”; for “MAYEERRSSILDSFSLSPLPYPVLLILAVASVFLLSSWYFSLEEAAESAEEQINFALLLIPLFLIVLVRWLSSMENPDALLGMFSSSRRTTYVSPGAGGDGGSSPWGVAALIVLLLVLLQYQSSFLEMWSG”, “failed”.
For “MAYLEVLRYLYHKRPMGKVKPGLERISMLLSKLGNPHLEYKTIHIGGTNGKGSVANMVSNILVSQGYRVGSYYSPHLSTFRERIRLNEEYISEEDVVKIYETMEPILNELDKEEIFSPSFFEVVTAMAFLYFAEKNVDIAVLEVGLGGRLDATNVVFPLCSTIVTVDRDHEKTLGYTIEQIAWEKSGIIKERVPLVTGERKREALKVMEDVARKKSSRMYVIDKDFSVKVKSLKLHENRFDYCGENTFEDLVLTMNGPHQIENAGVALKTLEATGLPLSEKAIREGLKNAKNLGRFEILEKNGKMYILDGAHNPHGAESLVRSLKLYFNGEPLSLVIGILDDKNREDILRKYTGIFERVIVTRVPSPRMKDMNSLVDMAKKFFKNVEVIEDPLEAIESTERATVVTGSLFLVGYVREFLTTGKINEEWKL”, the protein production result is “not failed”.
For “MAYREKDTKKWTAQWFETNVMGEKKKRRKRGFETKREALEFERSKKLSNERSMDMKLSDFIEIYFSDKQNDLKDRTIKNKRYMMQQHIVPYFGNQMMSEIKASQIIQWQNEIQKKGYSDSYLRMIQNQLTSLFTHAAKIYDLPVNPCKKVKRMGNSDSRSLNFWTLDEYKQFIQTMEPGTRYYLMFEMLFWTGCRIGELLAITKADINFEKNQLSINKTYYRTGMQDIITEPKTKQSFRTIEIPEFLKEEIKEFVDGHYGMPDTERLFPVVQEAVQHKMKRQIELAGVKKIRVHDIRHSHVAYLIEKGVEPLLIRDRLGHKDIRITLNTYGHLYPNQQRKIANLLDNENGNAVTGLGEERDEC”, the protein production result is recorded as “failed”.
On to “MAYSLSPKKAGLPREVLKWLQSLDLSFFPKNVRRDFSNGYLVAEVFSWYFPRDFQMHSFDNGTSLAAKQSNWSQIEKFFVKQNISLVKEMIDGTIHCKPGAAELLVQEIYTILTNRSIQAIQRVEQGFTDKPYQDQLPMVARATASVSIKSNLSLTEVKAEPNIITNQRKVLAIIHRHLEQRKEERVQDPKRFNVKPTLGEQAVRLLAHQHEPNLQMNTSQAAC”, for which the protein production result is listed as “failed”.
On to “MAYSPSLNDIKSILNKYTSKDYELKCENRYDGKLELWLKGVFEEIVKTPGTRYVTHKQLDEKLKNFVTKTEFKEFQTVVMESFAVQNQNIDAQGEQIKELQVEQKAQGKTLQLILEALQGINKRLDNLESK”, for which the protein production entry was “failed”.
The value for “MCAADHSREQVMRIGEVASRAGVSVRSVRYYEDQGLLASTRSAGGQRQYTEHEVERVQFLQRLYAAGLSSRTIAELLPCVDAPSEVHSDAALERMAQERDRLTEHIADLVRTRDALNALMTAAREYRDAQFA” was “failed”.
The value for “MCAPKRGRSQQFITTVIVCWRMASFSFRIEVRLSDAERRPTMRQQLFSTLTVLVALVGLSRAVVAQPMAIATLTPPELQELQRLVPRSAEDYYNLGLMHQGRGDLAAAIDAFSQAIKLNPSADYYFARGLAYYDQGDMQRAIADFTTALGDDPQFIAAYYNRGMAYLALQNYDAAIADFDAALARDPQFVAAYYSRGMAHFDRGNVELAQRDYERARALNPAMTAQYYDRAPRPLTGGP” was “failed”.
Regarding “MCASKRSFFMSNSKFNVRLLTEIAFMAALAFIISLIPNTVYGWIIVEIACIPILILSFRRGLTAGLVGGLIWGILSMITGHAYILTLSQAFLEYLIAPVSLGIAGLFRQKTASLKLVPVLLGTFVAVLLKYFFHFIAGIIFWSQYAWKGWGAVAYSLAVNGISAILTAIAAFVILIIFVKKFPKLFIYSNY”, the protein production entry is given as “failed”.
Regarding “MCEGHTRNDPCERRHDPGARVRRKAGKIRSMILVFFSLCLGALIGALFRFPWYMLFLLAAIFWKRNKDISVVIFFTLLSASLYQIGTLPAGNYELVGYAERGRLKQVKVFQEEWKRIHPVRIETSEEGYVYAIGYFDGKAFHPSYLKKVEKPSLKTLKESFSGMANGTVLSVLFGEKNGDIYRSGLGHFFAVSGLHVGIAFSLYTTLLSFLTWRRTYQELTALLLLVPYVIAVGTPSVIRAYLTIFLWVAFKIFGFRTTPLHTTATVGSFMMIVDPTVVFTPSFLLSFFVTLCILESKNIFELTVKAYLSALPFLCLFFGGTNMSALVLSIPVSLLMIPVTWLAHLSFLLFLLGLKTSALIAAKITNIVSLPLNGFIKLANLLPEVPLPQYLYFILIFFPLLFLSPDIRDIFRKISGRAIL”, the protein production result is recorded as “failed”.
For the sequence “MCEKTAGDESGRRISRRAGNGEAGRLRSLSRLFDHFATAVTRWTGSPIAFSGACAAILAWASTGPLFGYSEVWQLVVNTGTTIVTFLMVFLIQQAQNKDSRALHVKLDELLVAVNGADVALAEAENLDDDRLLELADAYAARARRLVEHSTQRQRRDRGAEPEVGAARTRLARRPPGARARRHARLCWWQKQYARQRQGGDT”, the protein production entry is on record as “failed”.

The values are drawn from a protein production outcome set (Wang et al. 2014).
